Measured values taken from patent US20020028208A1 (TEXAS A AND M UNIVERSITY SYSTEM, published 2002).

T1: huCD80-Ig fusion protein (human, UniProt P33681 35-241)
T1 construct: Provided by P. Linsley, Bristol-Meyers Squibb; also called soluble CD80 receptor; soluble receptor for CD28; not shown: Ig part of the fusion
T1 sequence (looked up): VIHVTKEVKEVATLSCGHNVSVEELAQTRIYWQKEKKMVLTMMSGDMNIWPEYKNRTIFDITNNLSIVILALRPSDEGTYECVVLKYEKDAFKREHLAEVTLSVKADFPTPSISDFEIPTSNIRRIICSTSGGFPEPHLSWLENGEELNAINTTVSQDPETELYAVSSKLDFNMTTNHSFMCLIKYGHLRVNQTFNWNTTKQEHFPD

B1: feline CD28, surface expressed on CD28-pSI transfected COS-7 cells (receptor)
chain: NKILVKQLPRLVVYNNEVNLSCKYTHNFFSKEFRASLYKGVDSAVEVCVVNGNYSHQPQFYSSTGFDCDGKLGNETVTFYLRNLFVNQTDIYFCKIEVMYPPPYIDNEKSNGTIIHVKEKHLCPAQLSPESSKPFWALVVVGGILGFYSLLATVALGACWMKTKRSRILQSDYMNMTPRRPGPTRRHYQPYAPARDFAAYRS
notes: also called feCD28; CD28 pSI transfected cells
B2: feline CD80 (B7-1)-TAMU, surface expressed on feCD80/pSI transfected COS-7 cells (ligand)
chain: ASLFYFCSGIIQVNKTVEEVAVLSCDYNISTKELTEIRIYWQKDDEMVLAVMSGKVQVWPKYKNRTFTDVTDNHSIVIMALRLSDNGKYTCIIQKIEKGSYKVKHLTSVMLLVRADFPVPSITDLGNPSHNIKRIMCLTSGGFPKPHLSWLENEEELNAINTTVSQDPETELYTISSELDFNMTNNHSFLCLVKYGNLLVSQIFNWQKSEPQPSNNQLWIIILSSVVSGIVVITALTLRCLVHRPAARWRQREMGRARKWKRSHLST
notes: also called CD80-pSI transfected COS cells

Tests used:
[1] = molecular target: T1, huCD80-Ig fusion protein; test: competitive cell-cell adhesion assay: CD28-pSI COS-7 monolayer pre-incubated with CD80 Ig at 1 ug/ml for 30 min and washed before labeled CD80-pSI COS-7 cells were added
Procedure: (§1) Binding assays for transfected cells expressing feline CD80 and feline CD28 were performed after the protocol described in Linsley et al., 1994a. One day after transfection, CD28 expressing COS-7 cells were removed from T-75 flasks with trypsin-EDTA treatment. The cells were allowed to adhere in 24 well plates at a concentration of 1×10⁵ cells per ml. Two days later, the feCD80/pSI transfected COS-7 cells were removed from T-75 flasks with PBS/0.5 […] EDTA. These cells were then fluorescently labeled with a 5 μM solution of Calcein AM (Molecular Probes, Eugene, Oreg.) in sterile PBS/1% BSA for 30 min at 37° C. (Akeson and Woods, 1993). Mock transfected COS-7 cells were labeled in the same fashion. The labeled cells were then washed three times with DMEM plus 10% FCS to remove unincorporated label, counted, and added directly to the monolayer. The two cell populations were allowed to interact for 1 hr at 37° C. Nonadherent cells were removed by gently washing the monolayer 3 times with DMEM +10% FCS. Following the washing, the fluorescence of each of the wells was quantitated on a microplate fluorimeter. Fluorescence in wells containing transfected populations was compared to wells in which CD80 expressing cells were added to COS-7 cells transfected with pSI plasmid alone. […]

[2] = molecular target: B1; test: cell-cell adhesion assay at 1x10^6 labeled CD80-pSI COS-7 cells on a CD28-pSI COS-7 monolayer; still significantly higher at 5x10^5 cells, not distinguishable at 1x10^5 and 1x10^4
Procedure: as §1

Row | binding result [1] | fluorescence retained, fold over wells with mock transfected adherent cells [2] [fold] | Binder
1 | binds | – | B1
2 | – | ~5 | B2
